According to US20250152704A1 (PARAGON THERAPEUTICS, published 2025):

What was measured:
[1] = biological target: FcRn-GFP; assay: cell-based or functional assay
[2] = biological target: T1, Recombinant in-house Human FcRn protein (human, UniProt P55899 24-297; P61769 21-119, limits assumed); assay: SPR (Biacore 8K), Fc fusion captured by anti-human Fc on CM5, huFcRn as analyte, 25 C, pH 6.0, 1:1 fit
T1 construct: also called huFCRN; HuFcRn
Procedure: (§1) Following a stabilization period in running buffer, the Fc fusion molecules at 20 nM were captured onto flow cell 2 (active) for 60 sec at a flow rate of 30 uL/min. […] Samples were injected in a multi-cycle manner over freshly captured Fc fusion molecule, by regenerating the capture surfaces with injection of 10 mM glycine pH 1.5 for 30 sec at a flow rate of 30 μL/min. The data was processed and analyzed with Biacore Insight Evaluation Software Version 2.0.15.12933 (GE Healthcare) as follows. […] The responses from the two buffer blank injections were then subtracted from the reference subtracted data (2-1) to yield double-referenced data, which were fit to a 1:1 binding model to determine the apparent association (ka) and dissociation rate constants (kd). Their ratio provided the apparent equilibrium dissociation constant or affinity constant (KD=kd/ka).

[3] = biological target: T2, human serum albumin (human, UniProt P02768 25-609); assay: SPR (Biacore 8K), Fc fusion captured by anti-human Fc on CM5, HSA as analyte, 25 C, pH 6.0, 1:1 fit
T2 construct: also called HSA
Procedure: as §1

[4] = biological target: T1, Recombinant in-house Human FcRn protein; assay: SPR (Biacore 8K), Fc fusion captured by anti-human Fc on CM5, huFcRn as analyte, 25 C, pH 7.4, 1:1 fit
Procedure: as §1

[5] = biological target: T2, human serum albumin; assay: SPR (Biacore 8K), Fc fusion captured by anti-human Fc on CM5, HSA as analyte, 25 C, pH 7.4, 1:1 fit
Procedure: as §1

T1 sequence (P55899 24-297 limits assumed, chain 1 of 2): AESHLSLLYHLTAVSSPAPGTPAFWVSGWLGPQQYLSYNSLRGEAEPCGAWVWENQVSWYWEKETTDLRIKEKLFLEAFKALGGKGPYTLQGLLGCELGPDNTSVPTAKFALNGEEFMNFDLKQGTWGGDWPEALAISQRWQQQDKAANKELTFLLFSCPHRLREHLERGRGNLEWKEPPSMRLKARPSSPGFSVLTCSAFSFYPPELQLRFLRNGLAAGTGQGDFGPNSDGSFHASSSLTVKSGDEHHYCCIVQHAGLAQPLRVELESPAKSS
T1 sequence (P61769 21-119 limits assumed, chain 2 of 2): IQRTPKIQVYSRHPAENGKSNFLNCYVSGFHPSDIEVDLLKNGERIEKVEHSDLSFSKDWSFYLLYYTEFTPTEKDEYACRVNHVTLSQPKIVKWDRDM
T2 sequence (P02768 25-609 limits assumed): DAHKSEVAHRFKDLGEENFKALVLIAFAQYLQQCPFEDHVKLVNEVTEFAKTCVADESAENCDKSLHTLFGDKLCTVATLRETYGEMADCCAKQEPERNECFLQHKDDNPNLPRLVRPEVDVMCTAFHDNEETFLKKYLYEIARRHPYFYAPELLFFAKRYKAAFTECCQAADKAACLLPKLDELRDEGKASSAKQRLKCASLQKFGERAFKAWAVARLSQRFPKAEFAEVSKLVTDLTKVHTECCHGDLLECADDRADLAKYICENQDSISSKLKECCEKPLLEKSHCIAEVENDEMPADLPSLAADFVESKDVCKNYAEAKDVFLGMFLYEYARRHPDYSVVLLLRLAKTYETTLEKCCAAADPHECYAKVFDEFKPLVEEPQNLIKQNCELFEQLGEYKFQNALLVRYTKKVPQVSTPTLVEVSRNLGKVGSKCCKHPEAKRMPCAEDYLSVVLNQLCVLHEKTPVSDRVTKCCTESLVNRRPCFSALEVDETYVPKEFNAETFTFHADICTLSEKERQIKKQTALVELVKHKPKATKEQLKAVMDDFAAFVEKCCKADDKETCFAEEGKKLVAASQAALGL

Binder	Average (n = 3) Residual FcRn [1]	Kd [2]	Kd [3]	Kd [4]	Kd [5]
Fc Fusion Molecule 44 (Fc fusion) chain 1: DKTHTCPPCPAPELLGGPSVFLFPPKPKDTLYITREPEVTCVVVDVSHEDPEVKFNWYVDGVEVHNAKTKPREEQYNSTYRVVSVLTVLHQDWLNGKEYKCKVSNKALPAPIEKTISKAKGQPREPQVCTLPPSRDELTKNQVSLSCAVKGFYPSDIAVEWESNGQPENNYKTTPPVLDSDGSFFLVSKLTVDKSRWQQGNVFSCSVMHEALKYHYTQKSLSLSPGGGGGSGGGGSGGGGSGGGGSGGGGSGGGGSEVQLLESGGGLVQPGGSLRLSCAASGFTFRSAGMSWVRQAPGKGPEWVSSISGSGSDTLYADSVKGRFTISRDNSKNTLYLQMNSLRPEDTAVYYCTIGGSLSRSSQGTLVTVSS chain 2: DKTHTCPPCPAPELLGGPSVFLFPPKPKDTLYITREPEVTCVVVDVSHEDPEVKFNWYVDGVEVHNAKTKPREEQYNSTYRVVSVLTVLHQDWLNGKEYKCKVSNKALPAPIEKTISKAKGQPREPQVYTLPPCRDELTKNQVSLWCLVKGFYPSDIAVEWESNGQPENNYKTTPPVLDSDGSFFLYSKLTVDKSRWQQGNVFSCSVMHEALKYHYTQKSLSLSPG	21				
Fc Fusion Molecule 45 (Fc fusion) chain 1: DKTHTCPPCPAPELLGGPSVFLFPPKPKDTLYITREPEVTCVVVDVSHEDPEVKFNWYVDGVEVHNAKTKPREEQYNSTYRVVSVLTVLHQDWLNGKEYKCKVSNKALPAPIEKTISKAKGQPREPQVCTLPPSRDELTKNQVSLSCAVKGFYPSDIAVEWESNGQPENNYKTTPPVLDSDGSFFLVSKLTVDKSRWQQGNVFSCSVMHEALKYHYTQKSLSLSPGGGGGSGGGGSGGGGSGGGGSGGGGSGGGGSGGGGSEVQLLESGGGLVQPGGSLRLSCAASGFTFRSAGMSWVRQAPGKGPEWVSSISGSGSDTLYADSVKGRFTISRDNSKNTLYLQMNSLRPEDTAVYYCTIGGSLSRSSQGTLVTVSS chain 2: DKTHTCPPCPAPELLGGPSVFLFPPKPKDTLYITREPEVTCVVVDVSHEDPEVKFNWYVDGVEVHNAKTKPREEQYNSTYRVVSVLTVLHQDWLNGKEYKCKVSNKALPAPIEKTISKAKGQPREPQVYTLPPCRDELTKNQVSLWCLVKGFYPSDIAVEWESNGQPENNYKTTPPVLDSDGSFFLYSKLTVDKSRWQQGNVFSCSVMHEALKYHYTQKSLSLSPG	29				
Fc Fusion Molecule 46 (Fc fusion) chain 1: DKTHTCPPCPAPELLGGPSVFLFPPKPKDTLYITREPEVTCVVVDVSHEDPEVKFNWYVDGVEVHNAKTKPREEQYNSTYRVVSVLTVLHQDWLNGKEYKCKVSNKALPAPIEKTISKAKGQPREPQVCTLPPSRDELTKNQVSLSCAVKGFYPSDIAVEWESNGQPENNYKTTPPVLDSDGSFFLVSKLTVDKSRWQQGNVFSCSVMHEALKYHYTQKSLSLSPGGGGGSGGGGSGGGGSGGGGSGGGGSGGGGSGGGGSGGGGSEVQLLESGGGLVQPGGSLRLSCAASGFTFRSAGMSWVRQAPGKGPEWVSSISGSGSDTLYADSVKGRFTISRDNSKNTLYLQMNSLRPEDTAVYYCTIGGSLSRSSQGTLVTVSS chain 2: DKTHTCPPCPAPELLGGPSVFLFPPKPKDTLYITREPEVTCVVVDVSHEDPEVKFNWYVDGVEVHNAKTKPREEQYNSTYRVVSVLTVLHQDWLNGKEYKCKVSNKALPAPIEKTISKAKGQPREPQVYTLPPCRDELTKNQVSLWCLVKGFYPSDIAVEWESNGQPENNYKTTPPVLDSDGSFFLYSKLTVDKSRWQQGNVFSCSVMHEALKYHYTQKSLSLSPG	44				
Fc Fusion Molecule 5 (Fc fusion, Made in CHO cells; also called ABD1-G4S-Efgart) EVQLLESGGGLVQPGGSLRLSCAASGFTFRSFGMSWVRQAPGKGPEWVSSISGSGSDTLYADSVKGRFTISRDNSKNTLYLQMNSLRPEDTAVYYCTIGGSLSRSSQGTLVTVSSGGGGSDKTHTCPPCPAPELLGGPSVFLFPPKPKDTLYITREPEVTCVVVDVSHEDPEVKFNWYVDGVEVHNAKTKPREEQYNSTYRVVSVLTVLHQDWLNGKEYKCKVSNKALPAPIEKTISKAKGQPREPQVYTLPPSRDELTKNQVSLTCLVKGFYPSDIAVEWESNGQPENNYKTTPPVLDSDGSFFLYSKLTVDKSRWQQGNVFSCSVMHEALKFHYTQKSLSLSPG		8.07 nM	6.32 nM	375 nM	
Fc Fusion Molecule 11 (Fc fusion, also called ABD1-(G4S)3-Efgart(KIH); ABD1-(G4S)3-Efgart(H)/Efgart(K)) chain 1: EVQLLESGGGLVQPGGSLRLSCAASGFTFRSFGMSWVRQAPGKGPEWVSSISGSGSDTLYADSVKGRFTISRDNSKNTLYLQMNSLRPEDTAVYYCTIGGSLSRSSQGTLVTVSSGGGGSGGGGSGGGGSDKTHTCPPCPAPELLGGPSVFLFPPKPKDTLYITREPEVTCVVVDVSHEDPEVKFNWYVDGVEVHNAKTKPREEQYNSTYRVVSVLTVLHQDWLNGKEYKCKVSNKALPAPIEKTISKAKGQPREPQVCTLPPSRDELTKNQVSLSCAVKGFYPSDIAVEWESNGQPENNYKTTPPVLDSDGSFFLVSKLTVDKSRWQQGNVFSCSVMHEALKFHYTQKSLSLSPG chain 2: DKTHTCPPCPAPELLGGPSVFLFPPKPKDTLYITREPEVTCVVVDVSHEDPEVKFNWYVDGVEVHNAKTKPREEQYNSTYRVVSVLTVLHQDWLNGKEYKCKVSNKALPAPIEKTISKAKGQPREPQVYTLPPCRDELTKNQVSLWCLVKGFYPSDIAVEWESNGQPENNYKTTPPVLDSDGSFFLYSKLTVDKSRWQQGNVFSCSVMHEALKFHYTQKSLSLSPG		6.69 nM	7.26 nM	371 nM	12 nM
Fc Fusion Molecule 12 (Fc fusion, also called Efgart(KIH)-(G4S)3-ABD1; Efgart(H)-(G4S)3-ABD1/Efgart(K)) chain 1: DKTHTCPPCPAPELLGGPSVFLFPPKPKDTLYITREPEVTCVVVDVSHEDPEVKFNWYVDGVEVHNAKTKPREEQYNSTYRVVSVLTVLHQDWLNGKEYKCKVSNKALPAPIEKTISKAKGQPREPQVCTLPPSRDELTKNQVSLSCAVKGFYPSDIAVEWESNGQPENNYKTTPPVLDSDGSFFLVSKLTVDKSRWQQGNVFSCSVMHEALKFHYTQKSLSLSPGGGGGSGGGGSGGGGSEVQLLESGGGLVQPGGSLRLSCAASGFTFRSFGMSWVRQAPGKGPEWVSSISGSGSDTLYADSVKGRFTISRDNSKNTLYLQMNSLRPEDTAVYYCTIGGSLSRSSQGTLVTVSS chain 2: DKTHTCPPCPAPELLGGPSVFLFPPKPKDTLYITREPEVTCVVVDVSHEDPEVKFNWYVDGVEVHNAKTKPREEQYNSTYRVVSVLTVLHQDWLNGKEYKCKVSNKALPAPIEKTISKAKGQPREPQVYTLPPCRDELTKNQVSLWCLVKGFYPSDIAVEWESNGQPENNYKTTPPVLDSDGSFFLYSKLTVDKSRWQQGNVFSCSVMHEALKFHYTQKSLSLSPG		11.3 nM	33.4 nM	492 nM	54.6 nM
Fc Fusion Molecule 6 (Fc fusion, Made in CHO cells; also called Efgart-G4S-ABD1) DKTHTCPPCPAPELLGGPSVFLFPPKPKDTLYITREPEVTCVVVDVSHEDPEVKFNWYVDGVEVHNAKTKPREEQYNSTYRVVSVLTVLHQDWLNGKEYKCKVSNKALPAPIEKTISKAKGQPREPQVYTLPPSRDELTKNQVSLTCLVKGFYPSDIAVEWESNGQPENNYKTTPPVLDSDGSFFLYSKLTVDKSRWQQGNVFSCSVMHEALKFHYTQKSLSLSPGGGGGSEVQLLESGGGLVQPGGSLRLSCAASGFTFRSFGMSWVRQAPGKGPEWVSSISGSGSDTLYADSVKGRFTISRDNSKNTLYLQMNSLRPEDTAVYYCTIGGSLSRSSQGTLVTVSS		2.1 nM	33.8 nM	634 nM	45.6 nM
